From patent publication US20220332804A1 (CSL INNOVATION, published 2022)

How the values were obtained:
Experiment in all cases: SPR, KD relative to WT C2;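 further: biacore SPR at 37 °C, anti-C2 mAbs captured on anti-human IgG chips with alanine or serine point mutants of C2 as analyte, KD from 1:1 fit compared with wild-type C2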
human C2 E275A = molecular target: T1, human C2 E275A (human, UniProt P06681 21-752)
T1 sequence: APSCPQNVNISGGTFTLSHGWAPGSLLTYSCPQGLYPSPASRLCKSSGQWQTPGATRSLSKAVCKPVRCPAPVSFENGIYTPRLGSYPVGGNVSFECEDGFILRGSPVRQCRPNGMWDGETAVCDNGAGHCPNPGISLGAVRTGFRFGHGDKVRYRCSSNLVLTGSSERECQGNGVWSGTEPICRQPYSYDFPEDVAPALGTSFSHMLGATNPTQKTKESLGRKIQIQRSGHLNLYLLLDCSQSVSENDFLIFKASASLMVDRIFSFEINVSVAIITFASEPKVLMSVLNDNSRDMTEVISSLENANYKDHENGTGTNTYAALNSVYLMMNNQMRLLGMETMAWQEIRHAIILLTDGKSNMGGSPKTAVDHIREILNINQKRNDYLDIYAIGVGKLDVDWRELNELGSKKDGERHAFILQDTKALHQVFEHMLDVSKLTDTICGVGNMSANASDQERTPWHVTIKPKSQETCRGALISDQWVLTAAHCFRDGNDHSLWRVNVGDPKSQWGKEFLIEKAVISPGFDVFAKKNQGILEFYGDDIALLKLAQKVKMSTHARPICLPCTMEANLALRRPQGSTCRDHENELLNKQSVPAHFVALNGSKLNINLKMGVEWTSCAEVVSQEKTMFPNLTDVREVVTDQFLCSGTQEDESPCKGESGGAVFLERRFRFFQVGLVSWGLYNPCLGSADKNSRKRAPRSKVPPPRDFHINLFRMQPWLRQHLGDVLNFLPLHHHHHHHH

human C2 I320A = molecular target: T2, human C2 I320A (human, UniProt P06681 21-752)
T2 sequence: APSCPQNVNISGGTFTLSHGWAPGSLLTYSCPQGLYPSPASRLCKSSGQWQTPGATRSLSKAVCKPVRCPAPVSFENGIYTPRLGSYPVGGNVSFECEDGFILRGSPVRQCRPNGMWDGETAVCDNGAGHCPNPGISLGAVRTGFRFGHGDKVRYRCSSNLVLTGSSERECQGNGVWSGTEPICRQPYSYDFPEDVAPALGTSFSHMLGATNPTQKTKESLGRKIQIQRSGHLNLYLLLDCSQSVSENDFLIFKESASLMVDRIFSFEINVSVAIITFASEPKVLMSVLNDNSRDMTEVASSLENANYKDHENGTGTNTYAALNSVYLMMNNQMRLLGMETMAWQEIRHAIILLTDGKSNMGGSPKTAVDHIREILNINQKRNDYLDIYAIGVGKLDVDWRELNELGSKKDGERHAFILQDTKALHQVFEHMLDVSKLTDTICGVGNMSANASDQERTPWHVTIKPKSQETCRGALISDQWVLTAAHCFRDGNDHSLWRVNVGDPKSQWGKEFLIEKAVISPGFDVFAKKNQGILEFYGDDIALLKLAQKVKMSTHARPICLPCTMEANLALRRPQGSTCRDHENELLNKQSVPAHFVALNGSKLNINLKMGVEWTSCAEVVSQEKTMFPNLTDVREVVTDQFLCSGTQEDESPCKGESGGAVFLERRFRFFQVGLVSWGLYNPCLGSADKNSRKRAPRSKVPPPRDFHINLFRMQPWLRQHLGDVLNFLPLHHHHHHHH

human C2 A326S = molecular target: T3, human C2 A326S (human, UniProt P06681 21-752)
T3 sequence: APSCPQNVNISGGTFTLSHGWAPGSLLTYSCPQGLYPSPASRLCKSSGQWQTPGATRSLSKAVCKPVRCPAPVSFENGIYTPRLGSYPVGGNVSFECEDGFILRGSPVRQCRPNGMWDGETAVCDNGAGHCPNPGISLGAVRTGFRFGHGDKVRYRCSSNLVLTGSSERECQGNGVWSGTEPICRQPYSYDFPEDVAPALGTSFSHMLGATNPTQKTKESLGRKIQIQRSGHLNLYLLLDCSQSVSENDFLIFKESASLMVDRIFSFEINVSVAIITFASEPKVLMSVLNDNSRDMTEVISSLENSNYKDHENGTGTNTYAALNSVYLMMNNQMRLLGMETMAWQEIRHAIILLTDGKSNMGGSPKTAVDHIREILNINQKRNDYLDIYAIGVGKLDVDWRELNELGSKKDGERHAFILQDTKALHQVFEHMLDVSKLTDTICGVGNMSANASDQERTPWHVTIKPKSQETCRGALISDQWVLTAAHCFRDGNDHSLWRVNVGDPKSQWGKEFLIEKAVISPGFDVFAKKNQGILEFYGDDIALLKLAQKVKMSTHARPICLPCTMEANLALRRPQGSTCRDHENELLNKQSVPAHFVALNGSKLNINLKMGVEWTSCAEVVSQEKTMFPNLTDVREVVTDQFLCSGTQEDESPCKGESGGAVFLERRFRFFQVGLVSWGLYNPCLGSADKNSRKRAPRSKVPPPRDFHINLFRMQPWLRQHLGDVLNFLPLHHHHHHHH

human C2 N268A = molecular target: T4, human C2 N268A (human, UniProt P06681 21-752)
T4 sequence: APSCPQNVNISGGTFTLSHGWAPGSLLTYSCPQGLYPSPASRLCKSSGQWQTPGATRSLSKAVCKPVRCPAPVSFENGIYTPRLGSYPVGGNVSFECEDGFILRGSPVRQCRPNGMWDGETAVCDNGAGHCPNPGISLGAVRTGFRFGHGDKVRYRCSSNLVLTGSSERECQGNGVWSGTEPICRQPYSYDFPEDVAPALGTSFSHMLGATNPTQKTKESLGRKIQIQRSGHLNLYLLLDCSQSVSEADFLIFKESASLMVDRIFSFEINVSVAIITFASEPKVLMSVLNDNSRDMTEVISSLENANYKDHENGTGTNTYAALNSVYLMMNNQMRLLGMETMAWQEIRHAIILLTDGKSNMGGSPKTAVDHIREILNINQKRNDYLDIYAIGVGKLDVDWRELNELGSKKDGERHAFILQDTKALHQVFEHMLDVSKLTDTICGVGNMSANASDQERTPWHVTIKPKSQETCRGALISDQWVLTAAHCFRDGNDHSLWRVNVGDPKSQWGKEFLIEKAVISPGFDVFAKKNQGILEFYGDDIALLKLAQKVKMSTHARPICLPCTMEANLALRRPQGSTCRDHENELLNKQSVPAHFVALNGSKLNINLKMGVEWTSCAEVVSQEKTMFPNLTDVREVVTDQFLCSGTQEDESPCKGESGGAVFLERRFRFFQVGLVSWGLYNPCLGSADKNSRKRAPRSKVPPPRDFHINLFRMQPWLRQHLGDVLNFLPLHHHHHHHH

B1: RF16-242 (antibody, human IgG4 S228P, lambda, V domains shown)
VH: EVQLLQSGAEVKKPGESLKISCKGSGYSFTSYWIGWVRQMPGKGLEWMGIIYPGDSDTRYSPSFQGQVTISADKSISTAYLQWSSLKASDTAMYYCARRGHYGDYFDYWGQGTLVTVSS
VL: SYELTQPPSVSVSPGQTARITCSGDALPKKYAYWYHQKSGQAPVLVIYEDRRRPSEIPERFSGSSSGTMATLTITGAQVEDEGVYFCYSRDRAGNQRVFGGGTQLTVLG
notes: pH-dependent anti-C2 antibody from a phage display library
Fold diff (human C2 E275A): 6 fold | Fold diff (human C2 I320A): 10 fold | Fold diff (human C2 A326S): 1 fold | Fold diff (human C2 N268A): 2 fold
